Test results taken from the supplement of paper PMC9170038.

Tested on: K4 kissing-loop RNA reporter
Experiment: apparent KD of K4 kissing-loop reporter; higher = weaker reporter binding
Details: Eterna round: R107
Description: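 RNA-MaP round R107: designed RNA switches with theophylline, tryptophan, arginine or FMN aptamers are transcribed on-chip within common flanks. They are titrated with a labelled K4 kissing-loop RNA reporter in RNA-MaP buffer (100 mM Tris pH 7.5, 80 mM KCl, 4 mM MgCl2), without ligand or with the indicated ligand. Median apparent KD per design.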

[1] = input ligand: theophylline 20 uM
[2] = input ligand: tryptophan 2.4 mM
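Further: bound reporter read as fluorescence of individual clusters on recovered sequencing chips by microscopy, with normalized cluster intensities fitted with a binding model.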

| Sequence | apparent KD of K4 kissing-loop reporter (input ligand: FMN 200 uM) | apparent KD of K4 kissing-loop reporter (input ligand: arginine 13.2 mM) | apparent KD of K4 kissing-loop reporter (input ligand: none) | apparent KD of K4 kissing-loop reporter [1] | apparent KD of K4 kissing-loop reporter [2] |
| --- | --- | --- | --- | --- | --- |
| GGAAUAACCUGGGAUACCAGUCGGAGGACUAGGGAUCGGAGUGAUGUUCUGGGAUGUUUCGGCCCUUGGCAGCUCUGGUUUUCCG [#2 Exclusion - Theophylline B Attempt #1 (HarryS)] | 569 nM | 286 nM | 551 nM | 614 nM | 443 nM |
| GGACGCCGGUCGGCCGCCACUCACAGCAGCCAGUGAUGUUGGAUUGUAGCGGAGUGAUGUUCCGAGAGGACCGGGACUGCAGUCU [Same State Tryptophan B GF 11] | 161 nM | 135 nM | 153 nM | 114 nM | 137 nM |
| GGACGCCGGUCGGCCGCCACUCACAGCAGUGAUGUUCCUGAGAAUGUAGCGGAGUGAUGUUCCGAGAGGACCGGGACUGCAGUUU [Same State Tryptophan B GF 8] | 799 nM | 644 nM | 777 nM | 875 nM | 840 nM |
| GGAGCCGAUAGUGAUACCAGCCAGUGAUGUUGGCGAAGUCUCAUUUUCGCUCUCGGUAAGGGCCCUUGGCAGCACUUACUCGGAA [Arledied] | 105 nM | 94 nM | 102 nM | 95.9 nM | 104 nM |
| GGAGGAGAAUAUGAUACCAGCAGAGAGAGAGAGGAAGUAUAGUGAUGUUAUAUGAGAGAAUGCCCUUGGCAGCAUAAGACGCAGG [#07 K4 Theophylline B Same State] | 194 nM | 114 nM | 110 nM | 144 nM | 94.7 nM |
| GGAGGGAUCUCGGCCGCCACUCAUAAGAAAUGGGCCUCAGAAAUAUAGUGAUGUUAUGUAAAGAAGAGGACCGGGAGAAAGAAGG [ExTryptoB.Da] | 390 nM | 202 nM | 324 nM | 218 nM | 242 nM |
| GGAGGUUGGUGCGAUACCAGACCAGCAGUGAUGUUGCGCCAAAGUGAGUGAUGUUCACCGGUCCCUUGGCAGCGCAUUCCUUUAG [Same State Theophylline B GF 14] | 964 nM | 1110 nM | 1440 nM | 1120 nM | 1110 nM |
| GGAGUAACCUGGGAUACCAGUCGGAGGCCUAGGGAUCGGAGUGAUGUUCUGGGAUGUUUCGGCCCUUGGCAGCUCUGGGUCUCCG [#2 Exclusion - Theophylline B Attempt #2 (HarryS)] | 184 nM | 105 nM | 151 nM | 158 nM | 144 nM |
| GGAUAGGACAGAGGAUAUUGGUAGUGAUGUUACCAAAUAAAUAAACAGUCUACAAAGUAGGCUGACCAAGAAGGCUGUCCUAUCG [FmnBX 24 #SwitchBubble #StaticStem #Palindromic] | 226 nM | 79.1 nM | 85.2 nM | 80.1 nM | 74.7 nM |
| GGAUAGGAUAGAGGAUAUGGAAAACACAAAAGUGACUUGUUGUGUUUAUCCAUAGGGAGUGAUGUUCCAGAAGGCUGUCCUAUCG [MatMod 23 - Jieux - Exclusion - FMN B] | 229 nM | 169 nM | 169 nM | 164 nM | 136 nM |
| GGAUAGGAUAGAGGAUAUGGGUUAGGCAAGAAUAACUUGUCUAGUAAAUCCAUGAGGAGUGAUGUUCCAGAAGGCUGUCCUAUCG [MatMod 4 - Jieux - Exclusion - FMN B] | 429 nM | 125 nM | 117 nM | 127 nM | 98.3 nM |
| GGAUAGGAUAGAGGAUAUGGUAUAUGCAAGAAUAACUUGUCAUGUAAAUCCAUGAGGAGUGAUGUUCCAGAAGGCUGUCCUAUCG [MatMod 10 - Jieux - Exclusion - FMN B] | 646 nM | 324 nM | 480 nM | 519 nM | 379 nM |
| GGAUCUUCCAGUGAUGUUGGUUAAUAUAUCAAGGAUAUGACGAAAGUCAGAAGGUGAAAGACUGGACAAAGUCCAGUCGGAUCCA [KL-SSFMN-A19] | 444 nM | 573 nM | 599 nM | 444 nM | 430 nM |
| GGAUGGUAGGCGGCCGCCACUAAAACUGAACACAUACAAGCCAGUGAUGUUGGUAUGAUGGAGUAUAGGACCGGGCCUAGAUAGA [Exclusion - Tryptophan B (Freestyle 4)] | 452 nM | 367 nM | 472 nM | 420 nM | 421 nM |
| GGCACUUUUGCUUGGAACCGUCAAGCUCGAUAGGAUAUGCCGAAAGGCAGAAGGAUUGACCUACAGAGUGAUGUUCUGCGUGCCU | 791 nM | 378 nM | 830 nM | 288 nM | 408 nM |
| GGCAGUGAUGUUGCCAGUGGCAGAUGUGAAGGAGCGCGGUGAGACGCAGGUAGGUCGCACAUUGAAAUUGCUGUCACUAAAAUGC [#02 K4 Arginine A Exclusion] | 294 nM | 300 nM | 273 nM | 314 nM | 215 nM |
| GGCAGUGAUGUUGCCUUCGCAAUGCAUGCAGAGGAUAUUCGUUUGGGAAGAAGGCUGCAGCGUUCUCUCGAGUGAUGUUCGGGUG [Same State FMN A GF 19] | 130 nM | 168 nM | 195 nM | 181 nM | 177 nM |
| GGCGGCCGCGCGAAAGCGCGGCCGGCCGAUACCAGCGCGCCGGCGCGCCCUUGGCAGCGGCGCCGAGUGAUGUUCGGCCUGCCGU [#2 Same State - Theophylline A Attempt #12 (HarryS)] | 144 nM | 101 nM | 112 nM | 134 nM | 125 nM |
| GGCUCCUACGCAGGAUAUAGUAGCCGAGAGUGAUGUUCUACGGCGUUUGCCGAUUUAGUCACAGAUCUAGAAGGGUGUAGGAGCC [XFMN-B PiClone] | 1040 nM | 660 nM | 1130 nM | 756 nM | 1000 nM |
| GGCUUGCUAGUGAUGUUAGCAUUUUCUGAAGGAGCGCGUGAAAACGCAGGUAGGUCGCAGAACCUUGCCAACUAUUUUAGUUGCC [Ex Arginine A K4 27] | 101 nM | 113 nM | 94.3 nM | 97.3 nM | 82.4 nM |
| GGGAGGAGUGGUGUUGAUUAAGAAGCGGAAGGAGCGCCGAAGAAGGCAGGUAGGUCGCCGGAAUAUAGUGAUGUUAUAUAGAGGG [ExArg.E] | 529 nM | 323 nM | 230 nM | 406 nM | 252 nM |

| Sequence | apparent KD of K4 kissing-loop reporter (input ligand: FMN 200 uM) | apparent KD of K4 kissing-loop reporter (input ligand: arginine 13.2 mM) | apparent KD of K4 kissing-loop reporter (input ligand: none) | apparent KD of K4 kissing-loop reporter [1] | apparent KD of K4 kissing-loop reporter [2] |
| --- | --- | --- | --- | --- | --- |
| GGGAGUAGUGCGGCCGCCACUGUGAAAGAAGAAGAAUAUAGUGAUGUUAUAUAGGAAAGGAAGAAUAGGACCGGGCAUUAGAUUU [SSTRyptB.K] | 213 nM | 226 nM | 260 nM | 235 nM | 183 nM |
| GGGUAUUACGGAGGAUAUGCACUGAGGAGGAGAAUAUAGUGAUGUUAUAUAAGAGGAAGGAGAAGAGUAGAAGGCCGUGGUAUUG [SSFMNB.H] | 247 nM | 217 nM | 280 nM | 277 nM | 190 nM |
| GGGUGUAGUGCGGCCGCCACUGUGAUAGUAGAAGAGUAUAGUGAUGUUAUAUAGGAUUAAUAGAAUAGGACCGGGCAUUAGACUU [#24 K4 Tryptophan B Same State] | 348 nM | 340 nM | 368 nM | 395 nM | 209 nM |
| GGUAGCAUGGCGGCCGCCACUACUGACAGCUGUCUGUUCUGGGUACCAGGGAGUGAUGUUCCCGGUAGGACCGGGCCAUGCUACC | 135 nM | 106 nM | 114 nM | 112 nM | 266 nM |
| GGUAGCAUGGCGGCCGCCACUAUUACUGGAUCGGAAACGAUCCAGUAUUUAUGAGUGAUGUUCAUUAGGACCGGGCCAUGCUACC | 342 nM | 301 nM | 304 nM | 305 nM | 208 nM |
| GGUAGCAUGGCGGCCGCCACUUUAUACUCGGUCGUUGGCGUCGUAAGUGAUGUUUACAUUCGCAAAAGGACCGGGCCAUGCUACC | 97.8 nM | 56.6 nM | 81.2 nM | 123 nM | 133 nM |
| GGUAUCUAUACAGAUACCAGUCGUACGGCUGCAUUACAGGUUAGUGAUGUUAACCUGUACGACCCUUGGCAGCUGUAUAGUAGUA [#14 K4 Theophylline B Exclusion] | 115 nM | 94 nM | 115 nM | 197 nM | 104 nM |
| GGUCCACGCCAUGCCAGUGAUGUUGGUAAGCGAGGACCGGUACGGCCGCCACUCGUUCAAUACCGUAUCGCCCAUAACCUGGAGA [Oneseror] | 113 nM | 89.1 nM | 104 nM | 96.5 nM | 118 nM |
| GGUGAUGAGCACGAUACCAGCCUCGGAGCCAGUGAUGUUGGCCCAGUUUAGAAUAAGACAGGCCCUUGGCAGCGUGACGAUGGCU [Inorusre] | 885 nM | 980 nM | 1020 nM | 687 nM | 981 nM |
| GUAGCACUUGACAGUGAUGUUGUCAAGGGCAAGGAUAUCACCUCAGUGAGAAGGUGUCCUUGAUAACUGCUACGGGAAUAUCCCA [Omei KL FMN A Exc D v7] | 603 nM | 136 nM | 152 nM | 156 nM | 168 nM |
| GUAGGAUGAGGAGGAGGAUGAAUUACUGAAGGAGCGCAAAGAAAUGCAGGUAGGUCGCGGUAAAGAAGUAUAGUGAUGUUAUAUC [#08 K4 Arginine A Same State] | 588 nM | 416 nM | 463 nM | 700 nM | 598 nM |
| GUAUCGCUAGGAGGAUAUUUCAAUUUGACUCUUUGAGUUAUUACGGAGUGAUGUUCCGAUUUACGGAAAGAAGGCCUAGUGAUAC [FMN B 12] | 140 nM | 170 nM | 202 nM | 172 nM | 179 nM |
| GUCCCGAGUGAUGUUCGGGUCGUUCGGGAAGGAGCGCCCGCAAGGGCAGGUAGGUCGCCCGGAUCUCUCAGGUAACUGAGAGACC [#2 Same State - Arginine A Attempt #28 (HarryS)] | 553 nM | 319 nM | 431 nM | 408 nM | 416 nM |
| GUCUCGAGUGAUGUUCGGGUCGAUUGGGAAGGAGCGCCCGGAAGGGCAGGUAGGUCGCCCGGGCCGCGCGGGAAACCGCGCGUCC [#2 Same State - Arginine A Attempt #8 (HarryS)] | 208 nM | 110 nM | 194 nM | 140 nM | 154 nM |
| GUCUGCUGUAUCGAUACCAGAAGUGGGCAGUGAUGUUGUUCGGGUACAUCGCGUCUCGAGUUCCCUUGGCAGCGAUUGUACGAAU [theeternabot_exclusion_KL_Theo_B_12] | 533 nM | 571 nM | 694 nM | 835 nM | 524 nM |
| GUCUGUGUACUAGGAUAUGGUUGCAGGCAGUCAGGUCGCCUUUUCGGCGGCCAGUGAUGUUGGUGGCCAGAAGGAGUACGUGAUG [Raorin] | 776 nM | 659 nM | 731 nM | 720 nM | 699 nM |
| GUGAUAUCGCAAGGAUAUCCAAUUUCUGCGGAUAAGUGAUGUUUGGCGCCGCCUCAGUUAUGGCAAGGAGAAGGUGCGGCCUAGC [theeternabot_sameState_KL_FMN_B_28] | 473 nM | 286 nM | 428 nM | 366 nM | 383 nM |
| GUGCGGUGGAGGCUACCGCUACUCUGAGAAGGAGCGCAGAUGACUGCAGGUAGGUCGCUUAGAGCUUGCAGUGAUGUUGCAAGUU [Teorzaqu] | 166 nM | 157 nM | 188 nM | 132 nM | 140 nM |
| GUGGUACAGGCGGCCGCCACUAGUGAUGUUAGUGAUAGAAGAUAUAGUAAAUAUCGGCAUUUAGAUAGGACCGGGCCUGGUGGUG [xxfxcmullin] | 353 nM | 245 nM | 305 nM | 309 nM | 267 nM |
| GUGGUUUACGUAGGAUAUCGAUGAUGAGUAAAUGGAGUGAUGUUCCGAGAUUGAAUAUGAGAUGAGCGAGAAGGGCGGUUUAUGC [FMN B Same State; Euporia Solution 2] | 32.8 nM | 36.9 nM | 31.4 nM | 37.3 nM | 29.5 nM |
| GUUAAAUAAAUGGGCAUAGUGAUGUUGUGUCGAGGACCGGUACGGCCGCCACUCGAGCUAGCAUGCCGGUCAUUAUGGGUAGUUU [theeternabot_exclusion_KL_Trp_A_46] | 112 nM | 118 nM | 142 nM | 132 nM | 219 nM |
